Publication PMC10784544, “Ferric reduction by a CYBDOM protein counteracts increased iron availability in root meristems induced by phosphorus deficiency” (Nature Communications, 2024)

Substrate: O=C1O[C@H]([C@@H](O)CO)C(O)=C1O
Experiment: two-electrode voltage clamp in Xenopus oocytes, trans-plasma membrane current
Format: cell-based, Arabidopsis thaliana
Details: cytosolic electron donor, raised by injection; ferricyanide as extracellular electron acceptor

B1: HYP1 (… TO LOW P1) (Arabidopsis thaliana) (protein)
chain: QSLCNTHRFTNNLAFADCSDLSALGSFLHWTYNEQNGTVSIAYRHPGTSASSWVAWGLNPSSTQMVGTQALVAFTNTTTNQFQAYTSSVSSYGTRLERSSLSFGVSGLSATLVSGEVTIFATLELSPNLITANQLWQVGPVVNGVPASHQTSGDNMRSSGRIDFRTGQASAGGGGSGDRLRKRNTHGVLNAVSWGVLMPMGAMMARYMKVFADPTWFYLHIAFQVSGYVIGVAGWATGIKLGNDSPGTSYSTHRNLGIALFTFATLQVFALLVRPKPDHKYRTYWNVYHHTVGYTTIILSIVNIFKGFDILDPEDKWRWAYIGILIFLGACVLILEPLTWFIVLRRKSRGGNTVAAPTSSKYSNGVNGTTTTGPHHQDA
notes: cDNA in pGEMHE, cRNA-injected Xenopus laevis oocytes
Km: 4 mM
